Experimental data published in US6218600A, “Structure and expression of the biotin carboxylase subunit of heteromeric acetyl-CoA carboxylase” (Board of Trustees Operating Michigan State University, priority 1996, dated 2001).

B1: 16:0-ACP: long-chain acyl-ACP synthesized from radioactive 16:0 fatty acid and recombinant spinach ACP-I (conjugate, UniProt P07854 57-138, looked up)
Acyl carrier protein 1, …: AKKETIDKVCDIVKEKLALGADVVVTADSEFSKLGADSLDTVEIVMNLEEEFGINVDEDKAQDISTIQQAADVIESLLEKKA
modifications: radiolabeled palmitoyl (16:0) acyl thioester
B2: 18:1-ACP: long-chain acyl-ACP synthesized from radioactive 18:1 fatty acid and recombinant spinach ACP-I (conjugate, UniProt P07854 57-138, looked up)
Acyl carrier protein 1, …: B1 Acyl carrier protein 1, …
modifications: radiolabeled oleoyl (18:1) acyl thioester

Legend:
Castor Endosperm ACCase = experiment: ACCase activity assay, castor endosperm extract, with metabolites of fatty acid synthesis; format: biochemical, castor (Ricinus Communis L.); details: mean of duplicate determinations ± standard deviation, 15 min
Pea Chloroplast ACCase = experiment: ACCase activity assay, pea chloroplast enzyme partially purified by gel permeation, with metabolites of fatty acid synthesis; format: biochemical, pea (Pisum sativum); details: mean of duplicate determinations ± standard deviation, 15 min

Row | Molecule | Castor ACCase Activity (% of Control) (Castor Endosperm ACCase; 10 μM addition) | Pea ACCase Activity (% of control) (Pea Chloroplast ACCase; 1 μM addition) | Pea ACCase Activity (% of control) (Pea Chloroplast ACCase; 3 μM addition) | Pea ACCase Activity (% of control) (Pea Chloroplast ACCase; 10 μM addition) | Castor ACCase Activity (% of Control) (Castor Endosperm ACCase; 5 μM addition)
1 | CCCCCCCCCCCCCCCC(=O)O [16:0, reference compound] | 97 ± 8 % of Control |  |  |  | 
2 | CCCCCCCC/C=C\CCCCCCCC(=O)O [18:1, Oleic acid, reference compound] | 72 ± 10 % of Control |  |  |  | 
3 | B1 | 75 ± 3 % of Control | 98 ± 2 % of control | 91 ± 4 % of control | 77 ± 4 % of control | 
4 | B2 | 63 ± 11 % of Control | 97 ± 1 % of control | 87 ± 3 % of control | 79 ± 14 % of control | 81 ± 9 % of Control
